Results as given in the nanobody polyreactivity screen of Harvey et al. (2022).

test: yeast display, Sf9 membrane polyspecificity reagent, FACS + sequencing; frameworks hold sequencing errors
Procedure, shortened: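 Polyreactivity labels are assigned by the sorting gate from which each nanobody was recovered. The gates were low and high (top ~1%), set on anti-HA fluorescence for expression and streptavidin fluorescence for reagent binding. Before sorting, galactose-induced (36–48 hours) yeast display cells were stained for 1 hour at 4 °C with 10% biotinylated, detergent-solubilized Sf9 membrane reagent.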

Row | Sequence | polyreactivity (PSR sort gate)
1 | QVQLVESGGGLVQAGGSLRLSCAASGIIFPYYAMGWYRQAPGKERELVAGISSSGGITYADSVKGRFTISRDNAKNTVYLQMNSLKPEDTAVYYCNAEYQWLEYDFWGQGTQVTVSS | low polyreactivity
2 | QVQLVESGGGLVQAGGSLRLSCAASGIIFQFYAMGWYRPAPGKERELVAAISRSGGITHYADSVKGRFTISRDNAKNTVYLQMNSLKPEDTAVYYCNAVQPARFVGGFGTGVDYWGQGTQVTVSS | high polyreactivity
3 | QVQLVESGGGLVQAGGSLRLSCAASGIIFQPYTMGWYRQAPGKERELVAAISYSGGSTYYADSVKGRFTISRDNAKNTVYLQMNSLKPEDTAVYYCAARRYPYSGTHRGFYYWGQGTQVTVSS | high polyreactivity
4 | QVQLVESGGGLVQAGGSLRLSCAASGIIFQRNAMGWYRQAPGKERELVAAISASGGSTNYADSVKGRFTISRDNAKNTVSLQMNSLKPEDTAVYYCAAEDDGDFDYWGQGTQVTVSS | low polyreactivity
5 | QVQLVESGGGLVQAGGSLRLSCAASGIIFQRNDIGWYREAPGKERELVANIRDGGITYADSVKGRFTISRDNAKNTVYLQMNSLKPDDTAVYYCALEDTSPGYGDQSSNAAYYYWGQGTQVTVSS | low polyreactivity
6 | QVQLVESGGGLVQAGGSLRLSCAASGIIFQTYAMGWYRQAPGKERELVAAISRSGGSTYYADSVKGRFTISRDNAKNTVYLQMNSLKPEDTAVYYCAAYGYHVNWLKGNYWGQGTQVTVSS | high polyreactivity
7 | QVQLVESGGGLVQAGGSLRLSCAASGIIFQVYAMGWYRQAPGKERELVAAISDDGSTNYADSVQGRFTISRDNAKNTGYLQMNSLKPEDTAVYYCAKDSWGRLYYRYDYWGQGTQVTVSS | low polyreactivity
8 | QVQLVESGGGLVQAGGSLRLSCAASGIIFQYYAMGWYRQAPGKERELVAAITSSGGSTFYADSVKGRFTISRDNSKNTVYLQMNSLKPEDTAVFYCAGVYHRSTYDYWGQGTQVTVSS | high polyreactivity
9 | QVQLVESGGGLVQAGGSLRLSCAASGIIFQYYVMGWYRQAPGKERELVATISTRGGSTYYADSVKGRFTISRDNAKNTVYLQMNSLKPEDTAVYYCAAPYGTYAYDYWGQGTQVTVSS | high polyreactivity
10 | QVQLVESGGGLVQAGGSLRLSCAASGIIFRGNAMGWYRQAPRKEREFVAAISLRGSRTYYADSVKGRFTISRDNAKNTVYLQMNSLKPEDTAVYYCNARGGPSPFGSDYWGQGTQVTVSS | high polyreactivity
11 | QVQLVESGGGLVQAGGSLRLSCAASGIIFRGNAMGWYRQAPRKERELVAAISSAGSTNYADSVKGRFTISRDNAKNTVYLQMNSLKPEDTAVYYCAKGSSKYHVTLRGRGYYWGQGTQVTVSS | low polyreactivity
12 | QVQLVESGGGLVQAGGSLRLSCAASGIIFRGNAMGWYRQEPGKESEIVAAISLRGSRTYYADSVKGRFTISRDNAKNTVYLQMNSLKPEDSAVYYCNARGGTSPFGSDYWGQGTQVTVSS | high polyreactivity
13 | QVQLVESGGGLVQAGGSLRLSCAASGIIFRGYAMGWYREAPGKERELVAAIRDRGGSTYYADSVKGRFTISRDNAKNTVYLQMNSLKPEDTAVYYCATENRVYRHPGYDYDYWGQGTQVTVSS | low polyreactivity
14 | QVQLVESGGGLVQAGGSLRLSCAASGIIFRGYVMGWYRQAPGKERELVAAISRSGGRTYYADSVKGRFTISRDNAKNTVYLQMNSLKPEDTAVYYCNAVRYVLGYSYDYNYWGQGTQVTVSS | high polyreactivity
15 | QVQLVESGGGLVQAGGSLRLSCAASGIIFRLNTMGWYRPAPGTERELVAAITSGGSTHYADSVKGRFTISRDNAKNTVYLQRISLNPEDTAVYYCAAGHRAKYWAWHFYYPGDYWGQGTQVTVSS | low polyreactivity
16 | QVQLVESGGGLVQAGGSLRLSCAASGIIFRLYAMGWYRQAPGKERELVAAITSRGGSTYYADSVKGRFTISRDNAKKTVYLQMNSLKPEDTAVYYCAARPVYSGYDYWGQGTQVTVSS | high polyreactivity
17 | QVQLVESGGGLVQAGGSLRLSCAASGIIFRLYGMGWYRQAPGKERELVAGINTGGSTYADSVKGRFTISRDNAKNTVYLQMNSLKPEDTAVYYCATGPYLIYDYWGQGTQVTVSS | low polyreactivity
18 | QVQLVESGGGLVQAGGSLRLSCAASGIIFRNYAMGLYRQAPGKEREFVAAISGSGTSTYYADSVKGRFTISRDNAKNTVYLQMNSLKPEDTAVYYCAAEKYSYPYDYEYWGQGTQVTVSS | high polyreactivity
19 | QVQLVESGGGLVQAGGSLRLSCAASGIIFRNYAMGWYRQAAGNERAWVAAISWTGDSTYYADSVKGRFTISRDNAKNTVYLQMNSQKPEETAVYYCAAEAYYGLWMDYWGQGTQVTVSS | low polyreactivity
20 | QVQLVESGGGLVQAGGSLRLSCAASGIIFRNYAMGWYRQAPGEERELVATIRYRGGRTYADSVKGRFTISRDNAKNTVYLQMNSLKPEDTAVYYCNTYARYAYLTGRMDYWGQGTQVTVSS | high polyreactivity
21 | QVQLVESGGGLVQAGGSLRLSCAASGIIFRNYAMGWYRQAPGKERELVAAISWTGDSTYYADSVKGRFTISRDNAKNTVYLQMNSLKPEDTAVDYCAAEAYYGLWMDYWGQGTQVTVSS | low polyreactivity

Row | Sequence | polyreactivity (PSR sort gate)
22 | QVQLVESGGGLVQAGGSLRLSCAASGIIFRPNAMGWYRQEPGKERELVAAISRNGVRTYYSDSVKGRFTISRDNAKITVYLQMNSLKPEDTAVYYCNRDYNAAYDWGEGTQVTVSS | high polyreactivity
23 | QVQLVESGGGLVQAGGSLRLSCAASGIIFRRYAMGLYRQAPGKERELVAAISSRGGSTYYADSVKGRFTISRDNAKNTVYLQMNCLKPEDTAVYFCAKGFSGTGGSGDFGYWGQGTQETVSS | high polyreactivity
24 | QVQLVESGGGLVQAGGSLRLSCAASGIIFRRYAMGWYRQAPGKERELVAAITGSGGSTYYADSVKGRFTISRDNAKNTVYLQMNSLKPEDTAVYYCAAQSLLRFASSRYNSWGQGTQVTVSS | high polyreactivity
25 | QVQLVESGGGLVQAGGSLRLSCAASGIIFRSYAMGWYRQAPGKERELVAAISRRGGSTYYADSVKGRFTISRDNAKNTVYLQMNSLKPEDTAVYYCAATVLSSPEPYDYWGQGTQVTVSS | high polyreactivity
26 | QVQLVESGGGLVQAGGSLRLSCAASGIIFRSYAMGWYRQAPGKERELVAGISLSGGSTYYADSVKGRFTISRDNAKNTVYLQMNSLKPEDTAVYYCATRNHYFRALRYGYCGQGTQVTVSS | high polyreactivity
27 | QVQLVESGGGLVQAGGSLRLSCAASGIIFRSYAMGWYRQAPGKERELVAGISLSGGSTYYADSVKGRFTISRDNAKNTVYLQMNSLKPEDTAVYYCATRNHYFRALRYGYWGQGTQVTVSS | high polyreactivity
28 | QVQLVESGGGLVQAGGSLRLSCAASGIIFRSYTMGWYRQAPGKERELVASITRSGGITYYADSVKGRFTISRDNAKNTVYLQMNSLKPEDTAVYYCAARHRYYYQYRSDYWGQGTQVTVSS | high polyreactivity
29 | QVQLVESGGGLVQAGGSLRLSCAASGIIFRVYAMGWYRQAPGKERELFATITWSGGSTFYADSLKGRFTISRDNAKNTVYLQLNSLKPEDTAVYYCAKRGYVRSGLGRPYADDYWGQCTQVTVSS | low polyreactivity
30 | QVQLVESGGGLVQAGGSLRLSCAASGIIFRWYTMGWYRQAPGKEREVVAAITGRGGSTYYADSVKGRFTISRDNAKNTVYLQMNSLKPEDSAVYYCAAQYSYPTPYRTYEYDYWGQGTQVTVSS | high polyreactivity
31 | QVQLVESGGGLVQAGGSLRLSCAASGIIFRWYVMGWYRQSPGKERELVAAITNGGRTYYADSVKGRFTISRDNAKNTVYLQMNSLKPEDTEVYYCAAYFRRKMDYWGQGTQVTVSS | high polyreactivity
32 | QVQLVESGGGLVQAGGSLRLSCAASGIIFRYYALGWYRKAPRKERELVAAINWRGGRTYYADSVKGRFTISRDNAKNTVYLQMNSLKPEDTAVYYCAAYIYYPYRNDYWGQGTQVTVSS | high polyreactivity
33 | QVQLVESGGGLVQAGGSLRLSCAASGIIFRYYAMGWYRPAPGKERELVAAISSGGSTNYADSVKGRFTISRDNAKNTVYLQMNSLKPEDTAVYYCAADYTYNGLEYDYWGQGTQVTVSS | high polyreactivity
34 | QVQLVESGGGLVQAGGSLRLSCAASGIIFRYYAMGWYRQAPGKERELVAAISGTGSTKYADSVKGRFTISRDNAKNTVYLQMNSLKPEDTAVYYCNPRKRYARYGGSGYDYWGQGTQVTVSS | high polyreactivity
35 | QVQLVESGGGLVQAGGSLRLSCAASGIIFRYYAMGWYRQAPGKERELVAAISWSTDSTYYADSVKGRFTISRDNAKNTVYLPMNSLKPEDTAVYYCNARPSYYRISPYDYWGQGTQVTVSS | high polyreactivity
36 | QVQLVESGGGLVQAGGSLRLSCAASGIIFRYYAMGWYRQAPGKERELVAVITGRGGGTYYADSVKGRFTISRDNAKNTVYLQMNSLKPEDTAVYYCAKDFTGHYPKGFDYWGQGTQVTVSS | low polyreactivity
37 | QVQLVESGGGLVQAGGSLRLSCAASGIIFRYYVMGWYRQAPGKERELVADITSGGSTYYADSVKGRFTISRDNEKNTVYLQMNSLKPEDTAVYYCAADYQYDWFYYWGQGTQVTVSS | high polyreactivity
38 | QVQLVESGGGLVQAGGSLRLSCAASGIIFSAYAMGCYRQAPGKESELVAAISSTGGSTYYADSVKGRFTISRDNAKNTVYLQMNSLKPEDTADYYCATAFTPSKLSRMGYWGQGTQVTVSS | high polyreactivity
39 | QVQLVESGGGLVQAGGSLRLSCAASGIIFSFYAMGWYRQAPWKERELVAAISSGGNTNYADSVNGRFTISRDNAKNTVYLQMNSLKPEDTAVYYCAAGYYIWSTYDYWGQGTQVTVSS | low polyreactivity
40 | QVQLVESGGGLVQAGGSLRLSCAASGIIFSGYAMGWYRQAPGKERELVASIRSGSNTYYADSVKGRFRISRDNAKNTVYLQMNSLKPEDTAVYYCAARVVPATFRFIRYPHPYYYWGQGTQVTVSS | low polyreactivity
41 | QVQLVESGGGLVQAGGSLRLSCAASGIIFSHNVMGWYRQAPGKERELVAAITYSGGSTYYADSVKGRFTISRDNAKNTVYLQMNSMKPEDTAVYYCNAVTYSSPYRFDYWGQGTQVTVSS | low polyreactivity
